Values quoted from earlier work, collected in publication PMC4080432.
pKd: −log10 of the molar value. Like-named read-outs stand apart in the source and are kept apart here.

Columns and labels:
NapB (Escherichia coli) [1] = molecular target: NapB (Escherichia coli) (UniProt P0ABL3)
NapB (Escherichia coli) [2] = molecular target: NapB (Escherichia coli) (UniProt P0ABL3); remark: listed apart in the source

Chain of UniProt P0ABL3 (P0ABL3 28-149): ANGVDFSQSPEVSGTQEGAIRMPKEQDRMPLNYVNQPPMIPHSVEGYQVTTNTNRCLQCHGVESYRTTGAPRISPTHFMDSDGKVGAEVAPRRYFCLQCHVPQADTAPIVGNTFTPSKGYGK

- pKd (NapB (Escherichia coli) [1]): 4.49
- pKd (NapB (Escherichia coli) [2]): 4.82
Substance: NapA (from UniProt P33937)
